Measured values from PMC4176161 (Nucleic Acids Research, 2014).
Like-named read-outs stand apart in the source and are kept apart here.

What was measured:
native gel or EMSA [1] = target: the molecule itself; test: native gel or EMSA
native gel or EMSA [2] = target: the molecule itself; test: native gel or EMSA; remark: listed apart in the source

Protein | stoichiometry N (native gel or EMSA [1]) | stoichiometry N (native gel or EMSA [2])
…2 (SEP2) (natural protein) not shown | 4 | 2
…1 (SEP1) (natural protein) MGRGRVELKRIENKINRQVTFAKRRNGLLKKAYELSVLCDAEVALIIFSNRGKLYEFCSSSNMLKTLDRYQKCSYGSIEVNNKPAKELENSYREYLKLKGRYENLQRQQRNLLGEDLGPLNSKELEQLERQLDGSLKQVRSIKTQYMLDQLSDLQNKEQMLLETNRALAMKLDDMIGVRSHHMGGGGGWEGGEQNVTYAHHQAQSQGLYQPLECNPTLQMGYDNPVCSEQITATTQAQAQQGNGYIPGWML | 4 | 2
…4 (SEP4) (natural protein) MGRGKVELKRIENKINRQVTFAKRRNGLLKKAYELSVLCDAEIALLIFSNRGKLYEFCSSPSGMARTVDKYRKHSYATMDPNQSAKDLQDKYQDYLKLKSRVEILQHSQRHLLGEELSEMDVNELEHLERQVDASLRQIRSTKARSMLDQLSDLKTKEEMLLETNRDLRRKLEDSDAALTQSFWGSSAAEQQQQHQQQQQGMSSYQSNPPIQEAGFFKPLQGNVALQMSSHYNHNPANATNSATTSQNVNGFFPGWMV | 4 | 2
